Molecular target: T1, recombinant CD45RO-Fc protein (Catalog # 10642-CD, R&D systems) (UniProt P08575-4 26-416)
T1 sequence (looked up): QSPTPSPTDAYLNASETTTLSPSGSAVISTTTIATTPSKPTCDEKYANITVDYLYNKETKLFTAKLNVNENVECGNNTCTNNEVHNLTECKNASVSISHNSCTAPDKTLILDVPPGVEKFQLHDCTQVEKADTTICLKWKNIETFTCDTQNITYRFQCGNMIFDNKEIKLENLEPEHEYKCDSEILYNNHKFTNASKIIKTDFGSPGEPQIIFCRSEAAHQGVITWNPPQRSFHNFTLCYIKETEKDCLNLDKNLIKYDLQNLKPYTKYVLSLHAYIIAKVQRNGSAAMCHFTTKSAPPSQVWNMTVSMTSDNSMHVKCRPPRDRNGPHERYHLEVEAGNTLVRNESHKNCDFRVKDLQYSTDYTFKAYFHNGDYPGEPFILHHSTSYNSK
Assay: MST

B1: BTN2A2-His tag protein (without Fc tag) (domain or fragment, human, UniProt Q8WVV5 33-237, looked up)
chain: QFTVVGPANPILAMVGENTTLRCHLSPEKNAEDMEVRWFRSQFSPAVFVYKGGRERTEEQMEEYRGRITFVSKDINRGSVALVIHNVTAQENGIYRCYFQEGRSYDEAILRLVVAGLGSKPLIEIKAQEDGSIWLECISGGWYPEPLTVWRDPYGEVVPALKEVSIADADGLFMVTTAVIIRDKYVRNVSCSVNNTLLGQEKETV
modifications: fluorescently labeled by covalent labeling (Monolith protein labeling kit RED-NHS 2nd generation, amine reactive)
Question: With B1 as the binder, how does the Kd read?
Answer: 63.5 nM

— paper doi:10.1101/2024.11.12.623303 (bioRxiv, 2024)
